Holding throughout (assay): SPR (ProteOn), CD73 variant immobilized on HTG chip
One test has as its target T1, KO_Linker CD73 chimera (human; chicken, UniProt P21589 27-553).
T1 construct: also called KO_292-310; linker region-swapped CD73
T1 chain: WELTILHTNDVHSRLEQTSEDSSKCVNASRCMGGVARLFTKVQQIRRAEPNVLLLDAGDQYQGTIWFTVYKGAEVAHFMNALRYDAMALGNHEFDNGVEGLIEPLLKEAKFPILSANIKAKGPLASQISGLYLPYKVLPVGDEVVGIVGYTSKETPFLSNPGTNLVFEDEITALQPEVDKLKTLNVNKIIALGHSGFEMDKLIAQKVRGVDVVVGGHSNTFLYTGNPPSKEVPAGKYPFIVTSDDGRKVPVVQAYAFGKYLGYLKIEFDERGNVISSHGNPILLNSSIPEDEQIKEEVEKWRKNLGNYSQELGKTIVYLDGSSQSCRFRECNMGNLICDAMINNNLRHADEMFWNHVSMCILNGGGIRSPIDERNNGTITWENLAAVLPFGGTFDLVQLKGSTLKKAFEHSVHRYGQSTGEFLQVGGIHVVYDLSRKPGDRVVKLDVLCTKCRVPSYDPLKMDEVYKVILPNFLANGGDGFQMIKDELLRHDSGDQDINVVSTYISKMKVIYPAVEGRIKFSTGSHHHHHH
The procedure: (§1) Binding of MEDI9447 to wild-type and mutant CD73 proteins was measured by surface plasmon resonance (SPR) using a ProteOn instrument (BioRad). CD73 crude cell supernatant protein samples were diluted to 3 µg/ml in PBS, 0.005% Tween-20, pH 7.4 (BioRad) and immobilized to ~400 RU on a HTG tris-NTA sensor chip (BioRad) pre-activated with 10 mM NiSO₄, 10 mM MES, pH 6.0 (BioRad). An equivalently diluted crude cell supernatant sample from non-transfected cells was included as a reference channel control. Sensorgrams were recorded by flowing two-fold dilutions of MEDI9447 prepared in PBS, 0.005% Tween-20, pH 7.4, ranging from 5 nM to 0.31 nM. […] Antibody binding was measured at a flow rate of 100 µL/min with a 3 min association phase and 20 min dissociation phase. The sensor chip surface was regenerated between each run by an 800 s injection of 300 mM EDTA, pH 8.5 (BioRad) at a flow rate of 30 µL/min. Binding kinetics were analyzed using the ProteOn data analysis software. Double referencing was performed and, unless noted otherwise, a 1:1 Langmuir binding model was utilized to fit the data. Some CD73 variants containing mutations within the amino acid region 171-188 fit poorly to a 1:1 model (i.e., Chi² values >10% of Rmax). Where noted, these variants were fit with a heterogenous antigen (2:1) model. […] Due to the assay format (antigen immobilized) and the dimeric state of CD73, KD values may be exaggerated due to avidity effects. However, it is not anticipated that this impacts ranking of MEDI9447 binding to the different CD73 variants.

A further test concerns the target T2, HDX_E1 CD73 chimera (human; chicken, UniProt P21589 27-553).
T2 chain: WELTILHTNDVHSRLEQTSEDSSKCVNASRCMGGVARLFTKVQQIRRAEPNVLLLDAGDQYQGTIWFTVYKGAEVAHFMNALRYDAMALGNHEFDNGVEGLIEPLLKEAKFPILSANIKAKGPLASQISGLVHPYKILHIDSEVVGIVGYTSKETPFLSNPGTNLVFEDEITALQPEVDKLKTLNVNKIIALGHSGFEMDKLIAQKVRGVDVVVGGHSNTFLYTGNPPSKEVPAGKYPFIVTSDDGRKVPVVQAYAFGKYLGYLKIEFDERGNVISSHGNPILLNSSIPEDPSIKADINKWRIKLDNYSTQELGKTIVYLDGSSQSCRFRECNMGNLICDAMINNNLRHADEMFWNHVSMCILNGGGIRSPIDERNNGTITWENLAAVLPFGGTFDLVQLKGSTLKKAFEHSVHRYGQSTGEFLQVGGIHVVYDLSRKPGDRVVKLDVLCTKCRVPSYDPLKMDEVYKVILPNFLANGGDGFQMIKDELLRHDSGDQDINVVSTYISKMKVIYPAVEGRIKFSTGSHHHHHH
The procedure:
as §1

Another test deals with T3, KO_Cterm CD73 chimera (human; chicken).
T3 construct: also called C-terminal domain-swapped CD73
T3 chain: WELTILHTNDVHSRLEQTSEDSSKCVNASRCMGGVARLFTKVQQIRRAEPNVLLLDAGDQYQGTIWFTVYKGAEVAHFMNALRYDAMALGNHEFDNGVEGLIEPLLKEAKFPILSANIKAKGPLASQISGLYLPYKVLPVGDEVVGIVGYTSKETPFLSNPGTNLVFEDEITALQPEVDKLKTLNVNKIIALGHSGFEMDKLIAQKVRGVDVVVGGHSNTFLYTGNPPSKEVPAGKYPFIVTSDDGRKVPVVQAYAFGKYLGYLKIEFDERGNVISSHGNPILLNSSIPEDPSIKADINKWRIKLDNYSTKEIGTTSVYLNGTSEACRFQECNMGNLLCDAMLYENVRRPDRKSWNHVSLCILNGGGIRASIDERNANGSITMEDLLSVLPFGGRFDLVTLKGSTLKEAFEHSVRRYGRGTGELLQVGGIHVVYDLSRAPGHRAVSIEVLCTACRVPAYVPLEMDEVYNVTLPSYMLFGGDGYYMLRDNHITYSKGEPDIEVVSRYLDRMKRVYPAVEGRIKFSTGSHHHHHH
On the procedure:
as §1

B1: MEDI9447 (antibody, human IgG1, lambda, V domains shown)
VH: EVQLLESGGGLVQPGGSLRLSCAASGFTFSSYAYSWVRQAPGKGLEWVSAISGSGGRTYYADSVKGRFTISRDNSKNTLYLQMNSLRAEDTAVYYCARLGYGRVDEWGRGTLVTVSS
VL: QSVLTQPPSASGTPGQRVTISCSGSLSNIGRNPVNWYQQLPGTAPKLLIYLDNLRLSGVPDRFSGSKSGTSASLAISGLQSEDEADYYCATWDDSHPGWTFGGGTKLTVLG
notes: Human IgG1-TM (L234F, L235E, P331S), lambda light chain; also called clone 10.3 antibody; 73combo3
Usually Kd stands for the constant that tells how readily two partners part at equilibrium. What is called koff is the rate constant with which the complex falls apart. The term kon denotes the second-order rate constant of association. With B1, the Kd with KO_Linker CD73 chimera is 4.14 pM; with HDX_E1 CD73 chimera, 9.9 pM; in the test with KO_Cterm CD73 chimera it was 1.7 pM. Further, the values for the koff in the test with KO_Linker CD73 chimera, in the test with HDX_E1 CD73 chimera and with KO_Cterm CD73 chimera were 2.31e-05 s⁻¹, 2.12e-05 s⁻¹ and 8.1e-06 s⁻¹, respectively. Moreover, the figures for the kon in the test with KO_Linker CD73 chimera, with HDX_E1 CD73 chimera and with KO_Cterm CD73 chimera were 5.7e+06 M⁻¹ s⁻¹, 2.15e+06 M⁻¹ s⁻¹ and 4.75e+06 M⁻¹ s⁻¹, respectively.

Values taken from patent publication US20230340152A1 (published 2023).
